Source: the DeepSol protein solubility set

Assay: soluble on expression in E. coli; label from the status in PepcDB or PDB records

Sequence: MNNDVTRILKDARDQGRLTALDYAELIFDNFMELHGDRQFADDKSIIGGLGYLAGRPVTIVGIQKGKNLQDNLDRHFGQPHPEGYRKALRLMKQAEKFGRPVITFINTAGAYPGVGAEERGQGEAIARNLLEMSDLKVPIIAIIIGEGGSGGALALAVADKVWMLEHTVYSILSPEGFASILWKDGTRTTEAAQLMKMTAGELYHMEVVDKVIPEHGYFSSEIVDMIKTSLISELEVLSQLSLEDLLEQRYQRFRKY
- soluble on expression in E. coli: not soluble

Sequence: MSLNTIDNKEHIIHYEHILKSTHTVNEVNTVSEVDAMKYSLIKLSAMNSYSDCQQAIEDIEADPENYTTETRAAARIGGHCELLKGAKEKIKALEKKADSFIPSDDSEEVNTVSETSQRTYGYGRVSTDEQTTSQQLTAIREAGHKVSDNRFIVDEGVSGGVCAMERPAFRNLVENKLEKGDTLVIAKLDRLGRDNIDVQQVVQMLTDKGIKLFILDLPVADLSSPEGKLMLQMFATFAEFEKNRISERIRDKLKQLKQEGKALGRPTKNVYDDVQELKAQGISQRTIADKLNVSLSTVRRNWVDTKRSLEVVTESGEGHHHHHH
- soluble on expression in E. coli: not soluble

Sequence: MGSDKIHHHHHHADGNDPVENSVSTYLLEKTYGARSVTYEENNSDKLKLSELPAISLSEADHILSVLRKHTDAQEELDIQTATKGEQTWLRIVMKQTIDHKYAFTIQLNMNCYNDGSLYYGGYQAECSSSLIKWYLKGFSLATDNATKNYKFESQSYIYMKVIDNGIKYMQIPVTINGNYNPQNHDAAFSYNL
- soluble on expression in E. coli: not soluble

Sequence: MRYLTAGESHGPRLTAIIEGIPAGLPLTAEDINEDLRRRQGGYGRGGRMKIENDQVVFTSGVRHGKTTGAPITMDVINKDHQKWLDIMSAEDIEDRLKSKRKITHPRPGHADLVGGIKYRFDDLRNSLERSSARETTMRVAVGAVAKRLLAELDMEIANHVVVFGGKEIDVPENLTVAEIKQRAAQSEVSIVNQEREQEIKDYIDQIKRDGDTIGGVVETVVGGVPVGLGSYVQWDRKLDARLAQAVVSINAFKGVEFGLGFEAGYRKGSQVMDEILWSKEDGYTRRTNNLGGFEGGMTNGQPIVVRGVMKPIPTLYKPLMSVDIETHEPYKATVERSDPTALPAAGMVMEAVVATVLAQEILEKFSSDNLEELKEAVAKHRDYTKNY
- soluble on expression in E. coli: soluble

Sequence: MPLVGQNVFKSSVTEYDAQTPVVYTVYNEVHQDLLNNTVFLKALADAIDSEIQAAREGKASLLANLQSIRLALQSGSANFGGPAGTTITHNLGTTNFRVSITPTANPDGYLGEIWVVKSSNTMTVFNSGDFRGAFDYQIFKN
- soluble on expression in E. coli: not soluble

Sequence: MEKRGVIDTWIDKHRSIYTAATRHAFVVSIRDGSVDLSSFRTWLGQDYLFVRRFVPFVASVLIRACKDSGESSDMEVVLGGIASLNDEIEWFKREGSKWDVDFSTVVPQRANQEYGRFLEDLMSSEVKYPVIMTAFWAIEAVYQESFAHCLEDGNKTPVELTGACHRWGNDGFKQYCSSVKNIAERCLENASGEVLGEAEDVLVRVLELEVAFWEMSRGGQ
- soluble on expression in E. coli: soluble

Sequence: ALSGECADEIFGGYPWFMRKEMIYANTFPWSRFVNERISLLSDDLKSINLQEYVDARYKENLNNVPVSDEDSPYAKRMRELFYLNIKWFMITLLTRKDRMSMANSLEVRVPFADYRLVEYAFNIPPEIKFLNGREKGILRKAFEGVLPQDVIERKKSPYPKTFDPRYTALVQKWLKKVVEDKTSPILDIIDLKTVNELIETGGSSYKTPWFGQLMKGPQLIAYLLQVNFWLKEY
- soluble on expression in E. coli: not soluble

Sequence: MGSDKIHHHHHHMIGDEPIRIRQLQALNILAESGTMSLTAKAMNISQPAVSRLLSDLSKELGYPLFSRSGRRLTLTREAQYLLPEIQRIFGAMGQIRNLRQNIQDGTSGHLKIACLPGFSTSHLPGVVADFLAARPKTTLTIEPDRPERILDWVIGEQYDCGITDGFRSHHALDSKTIPIRCVCIFPEGHPLEAKSVIHPEDLAGERIAHDRFGSEFYLRLRDILDAEGIAMDNFIETRQFTCACELVSKGVCVSVVSELDAQEYIGKGVSFRPFSANITHQLSLVWPRHTPTSILTLEFLGLFEKSLEPYAMTET
- soluble on expression in E. coli: not soluble
